Like-named read-outs stand apart in the source and are kept apart here. One block for each binder: values may come before it.
Key:
BMP6 [1] = biological target: T1, BMP6 (UniProt P22004 382-513, limits assumed); assay: Biacore SPR
T1 sequence (looked up): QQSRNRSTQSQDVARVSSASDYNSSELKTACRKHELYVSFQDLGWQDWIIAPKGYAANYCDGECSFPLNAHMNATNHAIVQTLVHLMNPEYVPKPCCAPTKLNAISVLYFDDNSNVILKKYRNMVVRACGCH
Description: (§1) Ligands were injected and allowed to flow over the captured receptor protein.

BMP5 [2] = biological target: T2, BMP5 (UniProt P22003 317-454, limits assumed); assay: Biacore SPR
T2 sequence (looked up): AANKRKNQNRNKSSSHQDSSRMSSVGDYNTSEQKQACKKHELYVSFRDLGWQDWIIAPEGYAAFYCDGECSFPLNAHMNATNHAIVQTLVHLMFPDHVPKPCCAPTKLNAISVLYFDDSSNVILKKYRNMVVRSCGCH
Description: as §1

BMP6 [3] = biological target: T1, BMP6; assay: Biacore SPR; remark: listed apart in the source
Description: as §1

GDF7 = biological target: T3, GDF7 (UniProt Q7Z4P5 322-450, limits assumed); assay: Biacore SPR; kinetics indeterminate (transient)
T3 construct: also called BMP12
T3 sequence (looked up): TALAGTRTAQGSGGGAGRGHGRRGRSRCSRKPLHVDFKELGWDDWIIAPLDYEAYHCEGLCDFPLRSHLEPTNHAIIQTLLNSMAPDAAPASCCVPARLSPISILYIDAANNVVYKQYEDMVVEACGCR
Description: as §1

GDF5 [4] = biological target: T4, GDF5 (UniProt P43026 382-501); assay: Biacore SPR; kinetics indeterminate (transient)
T4 construct: also called BMP14
T4 sequence (looked up): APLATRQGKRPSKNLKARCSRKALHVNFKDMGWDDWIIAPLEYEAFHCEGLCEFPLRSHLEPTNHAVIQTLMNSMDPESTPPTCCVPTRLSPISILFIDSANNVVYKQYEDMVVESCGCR
Description: as §1

BMP7 [5] = biological target: T5, BMP7 (UniProt P18075 293-431); assay: Biacore SPR
T5 sequence (looked up): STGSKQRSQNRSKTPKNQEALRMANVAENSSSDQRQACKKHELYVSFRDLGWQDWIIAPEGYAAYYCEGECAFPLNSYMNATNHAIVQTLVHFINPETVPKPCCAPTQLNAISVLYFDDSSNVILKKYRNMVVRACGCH
Description: as §1

BMP6 [6] = biological target: T1, BMP6; assay: Biacore SPR; remark: listed apart in the source
Description: as §1

BMP5 [7] = biological target: T2, BMP5; assay: Biacore SPR; remark: listed apart in the source
Description: as §1

BMP6 [8] = biological target: T1, BMP6; assay: Biacore SPR; remark: listed apart in the source
Description: as §1

GDF6 [9] = biological target: T6, GDF6 (UniProt Q6KF10 336-455, limits assumed); assay: Biacore SPR
T6 construct: also called BMP13
T6 sequence (looked up): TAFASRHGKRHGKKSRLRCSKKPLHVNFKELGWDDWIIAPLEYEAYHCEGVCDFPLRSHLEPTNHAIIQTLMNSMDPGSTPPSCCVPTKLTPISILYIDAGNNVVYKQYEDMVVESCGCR
Description: as §1

BMP7 [10] = biological target: T5, BMP7; assay: Biacore SPR; remark: listed apart in the source
Description: as §1

GDF5 [11] = biological target: T4, GDF5; assay: Biacore SPR
Description: as §1

BMP5 [12] = biological target: T2, BMP5; assay: Biacore SPR; remark: listed apart in the source
Description: as §1

GDF6 [13] = biological target: T6, GDF6; assay: Biacore SPR; kinetics indeterminate (transient)
Description: as §1

GDF11 = biological target: T7, GDF11 (UniProt O95390 299-407); assay: Biacore SPR
T7 construct: also called BMP11
T7 sequence (looked up): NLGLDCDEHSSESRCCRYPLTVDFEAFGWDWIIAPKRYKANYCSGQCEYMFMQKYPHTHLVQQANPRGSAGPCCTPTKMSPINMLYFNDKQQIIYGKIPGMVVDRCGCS
Description: as §1

BMP10 = biological target: T8, BMP10 (UniProt O95393 317-424); assay: Biacore SPR
T8 sequence (looked up): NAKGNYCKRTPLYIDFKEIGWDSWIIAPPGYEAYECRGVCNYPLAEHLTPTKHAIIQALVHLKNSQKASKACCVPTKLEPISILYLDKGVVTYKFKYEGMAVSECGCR
Description: as §1

activin A = biological target: T9, activin A (UniProt P08476 311-426); assay: Biacore SPR
T9 sequence (looked up): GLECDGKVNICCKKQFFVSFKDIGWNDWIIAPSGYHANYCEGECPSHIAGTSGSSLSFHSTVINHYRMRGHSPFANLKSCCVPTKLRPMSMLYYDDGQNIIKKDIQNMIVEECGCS
Description: as §1

GDF3 = biological target: T10, GDF3 (UniProt Q9NR23 251-364); assay: Biacore SPR
T10 sequence (looked up): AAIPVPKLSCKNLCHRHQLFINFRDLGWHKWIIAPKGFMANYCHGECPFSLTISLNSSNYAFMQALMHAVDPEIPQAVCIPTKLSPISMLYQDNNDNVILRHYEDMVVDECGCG
Description: as §1

activin B = biological target: T11, activin B (UniProt P09529 293-407); assay: Biacore SPR
T11 sequence (looked up): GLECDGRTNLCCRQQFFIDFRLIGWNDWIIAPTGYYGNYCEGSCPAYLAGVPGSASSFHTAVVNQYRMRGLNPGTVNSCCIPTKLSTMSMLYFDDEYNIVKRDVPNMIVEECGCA
Description: as §1

GDF8 = biological target: T12, GDF8 (UniProt O14793 267-375); assay: Biacore SPR
T12 construct: also called myostatin
T12 sequence (looked up): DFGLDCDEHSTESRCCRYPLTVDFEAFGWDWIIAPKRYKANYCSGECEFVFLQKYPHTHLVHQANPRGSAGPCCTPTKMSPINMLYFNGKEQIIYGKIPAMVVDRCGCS
Description: as §1

BMP9 = biological target: T13, BMP9 (UniProt Q9UK05 320-429); assay: Biacore SPR
T13 construct: also called GDF2
T13 sequence (looked up): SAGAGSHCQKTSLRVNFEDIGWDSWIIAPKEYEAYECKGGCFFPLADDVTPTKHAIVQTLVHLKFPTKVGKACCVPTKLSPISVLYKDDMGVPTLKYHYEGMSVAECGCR
Description: as §1

Kd (BMP6 [1]): 0.16 nM | koff (BMP6 [1]): 0.0039 s⁻¹ | kon (BMP6 [1]): 2.4e+07 M⁻¹ s⁻¹ | Kd (BMP5 [2]): 2.9 nM | koff (BMP5 [2]): 0.075 s⁻¹ | kon (BMP5 [2]): 2.6e+07 M⁻¹ s⁻¹ | Kd (BMP6 [3]): 1.1 nM | koff (BMP6 [3]): 0.007 s⁻¹ | kon (BMP6 [3]): 6.4e+06 M⁻¹ s⁻¹ | Kd (GDF7): > 12 nM | Kd (GDF5 [4]): > 9.6 nM | Kd (BMP7 [5]): 1.6 nM | koff (BMP7 [5]): 0.014 s⁻¹ | kon (BMP7 [5]): 8.8e+06 M⁻¹ s⁻¹ | Kd (BMP6 [6]): 0.19 nM | koff (BMP6 [6]): 0.0068 s⁻¹ | kon (BMP6 [6]): 3.5e+07 M⁻¹ s⁻¹ | Kd (BMP5 [7]): 2.9 nM | koff (BMP5 [7]): 0.075 s⁻¹ | kon (BMP5 [7]): 2.6e+07 M⁻¹ s⁻¹ | Kd (BMP6 [8]): 0.19 nM | koff (BMP6 [8]): 0.0068 s⁻¹ | kon (BMP6 [8]): 3.2e+07 M⁻¹ s⁻¹ | Kd (GDF6 [9]): 39 nM | koff (GDF6 [9]): 0.0057 s⁻¹ | kon (GDF6 [9]): 150000 M⁻¹ s⁻¹ | Kd (BMP7 [10]): 1.6 nM | koff (BMP7 [10]): 0.014 s⁻¹ | kon (BMP7 [10]): 8.8e+06 M⁻¹ s⁻¹ | Kd (GDF5 [11]): 1.1 nM | koff (GDF5 [11]): 0.0014 s⁻¹ | kon (GDF5 [11]): 1.2e+06 M⁻¹ s⁻¹ | Kd (BMP5 [12]): 9.7 nM | koff (BMP5 [12]): 0.037 s⁻¹ | kon (BMP5 [12]): 3.8e+06 M⁻¹ s⁻¹
B1: ActRIIB-Fc homodimer (Fc fusion, UniProt Q13705 19-137, looked up, not shown: a dimerising Fc or GST)
chain: SGRGEAETRECIYYNANWELERTNQSGLERCEGEQDKRLHCYASWRNSSGTIELVKKGCWLDDFNCYDRQECVATEENPQVYFCCCEGNFCNERFTHLPEAGGPEVTYEPPPTAPTLLT
notes: extracellular domain; also called ActRIIB homodimer

Kd (GDF6 [13]): > 240 nM | Kd (GDF11): 0.6 nM | koff (GDF11): 0.00093 s⁻¹ | kon (GDF11): 1.6e+06 M⁻¹ s⁻¹ | Kd (BMP10): 0.053 nM | koff (BMP10): 0.0029 s⁻¹ | kon (BMP10): 5.5e+07 M⁻¹ s⁻¹ | Kd (activin A): 0.076 nM | koff (activin A): 0.0026 s⁻¹ | kon (activin A): 3.4e+07 M⁻¹ s⁻¹ | Kd (BMP7 [10]): 0.17 nM | koff (BMP7 [10]): 0.0026 s⁻¹ | kon (BMP7 [10]): 1.5e+07 M⁻¹ s⁻¹ | Kd (GDF3): 6.5 nM | koff (GDF3): 0.012 s⁻¹ | kon (GDF3): 1.8e+06 M⁻¹ s⁻¹ | Kd (GDF5 [11]): 5 nM | koff (GDF5 [11]): 0.0044 s⁻¹ | kon (GDF5 [11]): 880000 M⁻¹ s⁻¹ | Kd (activin B): 0.047 nM | koff (activin B): 0.00015 s⁻¹ | kon (activin B): 3.2e+06 M⁻¹ s⁻¹ | Kd (GDF8): 0.36 nM | koff (GDF8): 0.00073 s⁻¹ | kon (GDF8): 2.1e+06 M⁻¹ s⁻¹ | Kd (BMP5 [12]): 1.2 nM | koff (BMP5 [12]): 0.0014 s⁻¹ | kon (BMP5 [12]): 1.2e+06 M⁻¹ s⁻¹ | Kd (BMP9): 0.28 nM | koff (BMP9): 0.00089 s⁻¹ | kon (BMP9): 3.2e+06 M⁻¹ s⁻¹
B2: ActRIIB-Fc:ALK2-Fc heterodimer (Fc fusion)
chain 1: GRGEAETRECIYYNANWELERTNQSGLERCEGEQDKRLHCYASWRNSSGTIELVKKGCWLDDFNCYDRQECVATEENPQVYFCCCEGNFCNERFTHLPEAGGPEVTYEPPPTAPTGGGTHTCPPCPAPELLGGPSVFLFPPKPKDTLMISRTPEVTCVVVDVSHEDPEVKFNWYVDGVEVHNAKTKPREEQYNSTYRVVSVLTVLHQDWLNGKEYKCKVSNKALPAPIEKTISKAKGQPREPQVYTLPPSRKEMTKNQVSLTCLVKGFYPSDIAVEWESNGQPENNYKTTPPVLKSDGSFFLYSKLTVDKSRWQQGNVFSCSVMHEALHNHYTQKSLSLSPGK
chain 2: MEDEKPKVNPKLYMCVCEGLSCGNEDHCEGQQCFSSLSINDGFHVYQKGCFQVYEQGKMTCKTPPSPGQAVECCQGDWCNRNITAQLPTKGKSFPGTQNFHLETGGGTHTCPPCPAPELLGGPSVFLFPPKPKDTLMISRTPEVTCVVVDVSHEDPEVKFNWYVDGVEVHNAKTKPREEQYNSTYRVVSVLTVLHQDWLNGKEYKCKVSNKALPAPIEKTISKAKGQPREPQVYTLPPSREEMTKNQVSLTCLVKGFYPSDIAVEWESNGQPENNYDTTPPVLDSDGSFFLYSDLTVDKSRWQQGNVFSCSVMHEALHNHYTQKSLSLSPG
notes: C-terminal Lys optional; also called ActRIIB-Fc:ALK2-Fc heterodimeric complex

Reference: patent US20190225669A1 (ACCELERON PHARMA, published 2019)
